From patent US20230357411A1 (published 2023) come the findings set out here.

Assay [1] concerns the target T1, Human-TrKA receptor on the surface of HEK293T-HumanTrKA cells (human, UniProt P04629 33-796).
T1 construct: whole, on cells
Nature of the assay: flow cytometry competition: inhibition of biotinylated Human-NGF binding to HEK293T-HumanTrkA cells. The source says:
Human-NGF was biotinylated, and Human-NGF could bind to the extracellular region of Human-TrkA protein on HEK293T-HumanTrkA cells, and anti-TrkA monoclonal antibodies could also bind to the extracellular region of Human-TrkA protein on HEK293T-HumanTrkA cells. […] In the FIG. 4, the parent% value reflected the Human-NGF signal that bound to the extracellular region of the Human-TrKA protein on HEK293T-HumanTrkA cells.
(In general: Flow cytometry measures light scatter and fluorescence of single cells or particles in a stream.)

Assay [2] concerns the target T2, Mouse-TrKA on the surface of HEK293T-MouseTrKA cells (mouse, UniProt Q3UFB7 34-799).
T2 construct: whole, on cells
Nature of the assay: flow cytometry on HEK293T-MouseTrkA cells. How it is done:
(§1) Lentiviral technology was used to construct HEK293T-MouseTrkA cell model. […] Flow cytometry was used to detect the binding of each concentration gradient humanized antibody to the […] on the surface of HEK293T-MouseTrKA cells, and the binding ability of each humanized antibody to Mouse-TrKA was evaluated at the cellular level. In the FIG. 3, the EC50 (half binding concentration) value reflected the binding ability of the antibody to Mouse-TrKA; the smaller the EC50 value, the stronger the binding ability of the antibody to Mouse-TrKA, and the higher the affinity of the antibody. It was generally believed that the EC50 value of high-affinity antibodies was lower than 1.5 μg/mL.

Assay [3] addresses T2, Mouse-TrKA on the surface of …. In words: flow cytometry competition: inhibition of biotinylated Mouse-NGF binding to HEK293T-MouseTrkA cells. The source says:
Mouse-NGF was biotinylated, and Mouse-NGF could bind to the extracellular region of Mouse-TrkA protein on HEK293T-MouseTrkA cells, and anti-TrkA monoclonal antibodies could also bind to the extracellular region of Mouse-TrkA protein on HEK293T-MouseTrkA cells. […] In the FIG. 5, the parent% value reflected the Mouse-NGF signal that bound to the extracellular region of the Mouse-TrKA protein on HEK293T-MouseTrkA cells.

Assay [4] deals with T1, Human-TrKA receptor on the surface of …. Nature of the assay: flow cytometry on HEK293T-HumanTrkA cells. The method, then:
as §1, with “HEK293T-HumanTrkA” for “HEK293T-MouseTrkA”, “HEK293T-HumanTrKA” for “HEK293T-MouseTrKA”, “Human-TrKA” for “Mouse-TrKA”, “2,” for “3,”, “Human-TrKA;” for “Mouse-TrKA;”, “Human-TrKA,” for “Mouse-TrKA,”

In assay [5] the target is TrkA protein on the surface of NIH-3T3-TrkA cells. In words: cell-based or functional assay.
The target of assay [6] is CD16 receptor (Fc gamma RIIIA) on Jurkat-NFAT-Luc-CD16 cells (UniProt P08637 17-254, limits assumed). Nature of the assay: cell-based or functional assay.

B1: humanized anti-TrkA monoclonal antibody H3L1-IgG4 (antibody, V domains shown)
VH: EVQLLESGGGLVQPGGSLKLSCKASGYAFTNYWLGWMKQRPGHGLEWIGDFYPRTGNTFYNENFKGQVTMSVDKSITTAYLQWNSLKASDTAMYYCARAGTGFDYWGQGTTLTVSS
VL: EIVMTQSPATLSLSVGERVTLSCKASENVGGYVSWYQQKPDQSPKLLIYGASSRHTGVPDRFTGSGSETDFTLTISSVQAEDLAAYHCGQNYIYPFTFGGGTKLEIKR
The IC50 is the concentration at which inhibition is half-maximal. Read a low IC50 as inhibition by little substance. For orientation: EC50 means the concentration at which the effect is half-maximal. Higher therefore signals a need for much substance. As to B1, the IC50 in assay [1] was 0.741 µg/mL; in assay [3] it was 0.283 µg/mL. The EC50 in assay [2] was determined as 0.111 µg/mL; in assay [4], 0.127 µg/mL.

B2: humanized anti-TrkA monoclonal antibody H3L2-IgG4 (antibody, V domains shown)
VH: EVQLLESGGGLVQPGGSLKLSCKASGYAFTNYWLGWMKQRPGHGLEWIGDFYPRTGNTFYNENFKGQVTMSVDKSITTAYLQWNSLKASDTAMYYCARAGTGFDYWGQGTTLTVSS
VL: EIVMTQSPATLSLSVGERVTLSCKASENVGGYVSWYQQKPDQSPKLLIYGASSRATGVPDRFTGSGSETDFTLTISSVQAEDLAAYHCGQNYIYPFTFGGGTKLEIKR
Consider B2, for which the IC50 in assay [1] worked out at 0.665 µg/mL; in assay [3], 0.252 µg/mL. For the same molecule, the EC50 in assay [2] came out at 0.125 µg/mL; in assay [4], 0.168 µg/mL.

B3: humanized anti-TrkA monoclonal antibody H1L1-IgG1 (antibody)
VH: EVQLLESGGGLVQPGGSLKLSCKASGYAFTNYWLGWMKQRPGHGLEWIGDFYPRTGNTFYNENFKGKVTLTADKSSNTAYMQLSSLTSEDSAVYLCARAGTGFDYWGQGTTLTVSS
light: EIVMTQSPATLSLSVGERVTLSCKASENVGGYVSWYQQKPDQSPKLLIYGASSRHTGVPDRFTGSGSETDFTLTISSVQAEDLAAYHCGQNYIYPFTFGGGTKLEIKRTVAAPSVFIFPPSDEQLKSGTASVVCLLNNFYPREAKVQWKVDNALQSGNSQESVTEQDSKDSTYSLSSTLTLSKADYEKHKVYACEVTHQGLSSPVTKSFNRGEC
As for B3, the “CDC activity, killing of NIH-3T3-TrKA cells (CCK8 cell viability), half-peak concentration IC50” value in assay [5] came to 0.222 µg/mL. Further, the “ADCC activity, luciferase reporter (Mean Value), half of the peak concentration EC50” value in assay [6] came to 0.0228 µg/mL.

B4: humanized anti-TrkA monoclonal antibody H1L1-IgG4 (antibody)
heavy: EVQLLESGGGLVQPGGSLKLSCKASGYAFTNYWLGWMKQRPGHGLEWIGDFYPRTGNTFYNENFKGKVTLTADKSSNTAYMQLSSLTSEDSAVYLCARAGTGFDYWGQGTTLTVSSASTKGPSVFPLAPCSRSTSESTAALGCLVKDYFPEPVTVSWNSGALTSGVHTFPAVLQSSGLYSLSSVVTVPSSSLGTKTYTCNVDHKPSNTKVDKRVESKYGPPCPPCPAPEAAGGPSVFLFPPKPKDTLMISRTPEVTCVVVDVSQEDPEVQFNWYVDGVEVHNAKTKPREEQFNSTYRVVSVLTVLHQDWLNGKEYKCKVSNKGLPSSIEKTISKAKGQPREPQVYTLPPSQEEMTKNQVSLTCLVKGFYPSDIAVEWESNGQPENNYKTTPPVLDSDGSFFLYSKLTVDKSRWQEGNVFSCSVMHEALHNHYTQKSLSLSLG
light: EIVMTQSPATLSLSVGERVTLSCKASENVGGYVSWYQQKPDQSPKLLIYGASSRHTGVPDRFTGSGSETDFTLTISSVQAEDLAAYHCGQNYIYPFTFGGGTKLEIKRTVAAPSVFIFPPSDEQLKSGTASVVCLLNNFYPREAKVQWKVDNALQSGNSQESVTEQDSKDSTYSLSSTLTLSKADYEKHKVYACEVTHQGLSSPVTKSFNRGEC
notes: H1 + L1, IGHG4 heavy chain isotype (mutated Fc), kappa light chain
Molecule B4 yielded an EC50 in assay [2] of 0.134 µg/mL. The “down-regulation of the level of TrkA protein tyrosine phosphorylation under NGF stimulation (AlphaLISA, p-TrkA), IC50” value in assay [5] came to 0.0207 µg/mL. The molecule further showed an IC50 in assay [3] of 0.385 µg/mL.

B5: human-mouse chimeric anti-TrkA monoclonal antibody 23E12 (H0L0-IgG4) (antibody)
heavy: QVQLQQSGAELVRPGTSVKISCKASGYAFTNYWLGWMKQRPGHGLEWIGDFYPRTGNTFYNENFKGKVTLTADKSSNTAYMQLSSLTSEDSAVYLCARAGTGFDYWGQGTTLTVSSASTKGPSVFPLAPCSRSTSESTAALGCLVKDYFPEPVTVSWNSGALTSGVHTFPAVLQSSGLYSLSSVVTVPSSSLGTKTYTCNVDHKPSNTKVDKRVESKYGPPCPPCPAPEAAGGPSVFLFPPKPKDTLMISRTPEVTCVVVDVSQEDPEVQFNWYVDGVEVHNAKTKPREEQFNSTYRVVSVLTVLHQDWLNGKEYKCKVSNKGLPSSIEKTISKAKGQPREPQVYTLPPSQEEMTKNQVSLTCLVKGFYPSDIAVEWESNGQPENNYKTTPPVLDSDGSFFLYSKLTVDKSRWQEGNVFSCSVMHEALHNHYTQKSLSLSLG
light: SIVMTQSPKSMSMSVGERVTLSCKASENVGGYVSWYQQKPDQSPKLLIYGASSRHTGVPDRFTGSGSETDFTLTISSVQAEDLAAYHCGQNYIYPFTFGGGTKLEIKRTVAAPSVFIFPPSDEQLKSGTASVVCLLNNFYPREAKVQWKVDNALQSGNSQESVTEQDSKDSTYSLSSTLTLSKADYEKHKVYACEVTHQGLSSPVTKSFNRGEC
notes: Printed mostly as 'HOLO-IgG4' (letter O for zero); also called HOLO-IgG4; chimeric antibody
Turning to B5, the 50% inhibitory concentration (IC50) in assay [1] was 0.881 µg/mL; in assay [3], 0.396 µg/mL. The EC50 amounted to 0.105 µg/mL in assay [2] and 0.0867 µg/mL in assay [4].
